From US20170184591A1

Experiments:
[1] = target: EcSkp, biotin conjugate (naked chaperone without fused target) (Escherichia coli) (UniProt P0AEU7); experiment: asymmetric DAGS ECL, Skp-Bi and FkpA-Ru 10 ng/ml each; sample: pool of anti-HTLV-negative human sera; background signal, duplicate 1
[2] = target: EcSkp, biotin conjugate (naked chaperone without fused target) (Escherichia coli) (UniProt P0AEU7); experiment: asymmetric DAGS ECL, Skp-Bi and FkpA-Ru 10 ng/ml each; sample: pool of anti-HTLV-negative human sera; background signal, duplicate 2
[3] = target: EcSkp, biotin conjugate (naked chaperone without fused target) (Escherichia coli) (UniProt P0AEU7); experiment: asymmetric DAGS ECL, Skp-Bi and FkpA-Ru 250 ng/ml each; sample: pool of anti-HTLV-negative human sera; background signal, duplicate 1
[4] = target: EcSkp, biotin conjugate (naked chaperone without fused target) (Escherichia coli) (UniProt P0AEU7); experiment: asymmetric DAGS ECL, Skp-Bi and FkpA-Ru 250 ng/ml each; sample: pool of anti-HTLV-negative human sera; background signal, duplicate 2
[5] = target: EcFkpA, biotin conjugate (naked chaperone without fused target) (Escherichia coli) (UniProt P45523); experiment: asymmetric DAGS ECL, FkpA-Bi and Skp-Ru 10 ng/ml each; sample: pool of anti-HTLV-negative human sera; background signal, duplicate 1
[6] = target: EcFkpA, biotin conjugate (naked chaperone without fused target) (Escherichia coli) (UniProt P45523); experiment: asymmetric DAGS ECL, FkpA-Bi and Skp-Ru 10 ng/ml each; sample: pool of anti-HTLV-negative human sera; background signal, duplicate 2
[7] = target: EcFkpA, biotin conjugate (naked chaperone without fused target) (Escherichia coli) (UniProt P45523); experiment: asymmetric DAGS ECL, FkpA-Bi and Skp-Ru 250 ng/ml each; sample: pool of anti-HTLV-negative human sera; background signal, duplicate 1
[8] = target: EcFkpA, biotin conjugate (naked chaperone without fused target) (Escherichia coli) (UniProt P45523); experiment: asymmetric DAGS ECL, FkpA-Bi and Skp-Ru 250 ng/ml each; sample: pool of anti-HTLV-negative human sera; background signal, duplicate 2

Chain of UniProt P45523 (P45523 26-270 limits assumed): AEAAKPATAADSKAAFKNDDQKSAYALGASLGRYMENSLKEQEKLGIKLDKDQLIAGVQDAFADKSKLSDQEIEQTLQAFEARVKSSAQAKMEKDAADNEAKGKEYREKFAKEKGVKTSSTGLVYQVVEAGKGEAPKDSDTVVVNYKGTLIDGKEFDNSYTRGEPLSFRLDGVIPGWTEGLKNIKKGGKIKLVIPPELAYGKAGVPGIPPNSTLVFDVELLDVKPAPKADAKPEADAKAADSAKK
Chain of UniProt P0AEU7 (P0AEU7 21-161 limits assumed): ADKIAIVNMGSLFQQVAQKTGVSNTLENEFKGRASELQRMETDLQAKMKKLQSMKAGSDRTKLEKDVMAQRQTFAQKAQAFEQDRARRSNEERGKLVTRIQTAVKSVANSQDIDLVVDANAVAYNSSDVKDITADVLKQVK

EcFkpA, ruthenium conjugate (naked chaperone without fused target) (from UniProt P45523 26-270)
Signal (counts) [1]: 567 counts
Signal (counts) [2]: 561 counts
Signal (counts) [3]: 2670 counts
Signal (counts) [4]: 2760 counts

EcSkp, ruthenium conjugate (naked chaperone without fused target) (from UniProt P0AEU7 21-161)
Signal (counts) [5]: 447 counts
Signal (counts) [6]: 439 counts
Signal (counts) [7]: 854 counts
Signal (counts) [8]: 864 counts
